Molecular target: human IL-12 receptor on HEK-Blue IL-12 reporter cells (human, UniProt P42701 24-662; Q99665 24-862)
Assay: cell-based or functional assay

Chain of human IL-12 receptor on HEK-Blue IL-12 reporter cells (Q99665 24-862, chain 2 of 2, other chains not shown): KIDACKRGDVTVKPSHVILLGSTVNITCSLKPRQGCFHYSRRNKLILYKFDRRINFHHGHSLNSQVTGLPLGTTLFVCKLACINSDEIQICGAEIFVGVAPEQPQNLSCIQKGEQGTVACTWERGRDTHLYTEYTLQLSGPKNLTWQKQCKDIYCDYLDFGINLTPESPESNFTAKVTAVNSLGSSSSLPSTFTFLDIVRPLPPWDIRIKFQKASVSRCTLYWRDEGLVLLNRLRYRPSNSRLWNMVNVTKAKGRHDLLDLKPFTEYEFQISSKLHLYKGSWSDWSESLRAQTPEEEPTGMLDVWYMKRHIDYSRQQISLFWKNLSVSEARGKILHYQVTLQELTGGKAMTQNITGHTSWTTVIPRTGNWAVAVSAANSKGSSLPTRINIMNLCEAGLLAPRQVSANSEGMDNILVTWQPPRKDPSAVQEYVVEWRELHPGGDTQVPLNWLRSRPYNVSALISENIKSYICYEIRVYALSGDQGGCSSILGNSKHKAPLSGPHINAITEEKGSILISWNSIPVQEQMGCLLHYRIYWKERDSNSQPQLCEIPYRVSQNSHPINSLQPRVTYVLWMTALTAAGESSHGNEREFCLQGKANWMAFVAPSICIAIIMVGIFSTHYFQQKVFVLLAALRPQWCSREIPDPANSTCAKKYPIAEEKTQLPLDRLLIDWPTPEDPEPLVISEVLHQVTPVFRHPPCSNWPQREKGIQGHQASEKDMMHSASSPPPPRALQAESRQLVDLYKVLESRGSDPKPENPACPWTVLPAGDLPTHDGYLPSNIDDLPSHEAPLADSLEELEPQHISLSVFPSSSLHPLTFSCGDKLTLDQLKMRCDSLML

B1: IL-12 prodrug JR3.105.5 after protease treatment (activated) (Fc fusion)
chain: DKTHTCPPCPAPELLGGPSVFLFPPKPKDTLMISRTPEVTCVVVDVSHEDPEVKFNWYVDGVEVHNAKTKPREEQYASTYRVVSVLTVLHQDWLNGKEYKCKVSNKALPAPIEKTISKAKGQPREPQVYTLPPCRDELTKNQVSLWCLVKGFYPSDIAVEWESNGQPENNYKTTPPVLDSDGSFFLYSKLTVDKSRWQQGNVFSCSVMHEALHNHYTQKSLSLSPGAGGGGSGGGGSGGGGSIWELKKDVYVVELDWYPDAPGEMVVLTCDTPEEDGITWTLDQSSEVLGSGKTLTIQVKEFGDAGQYTCHKGGEVLSHSLLLLHKKEDGIWSTDILKDQKEPKNKTFLRCEAKNYSGRFTCWWLTTISTDLTFSVKSSRGSSDPQGVTCGAATLSAERVRGDNKEYEYSVECQEDSACPAAEESLPIEVMVDAVHKLKYENYTSSFFIRDIIKPDPPKNLQLKPLKNSRQVEVSWEYPDTWSTPHSYFSLTFCVQVQGKSKREKKDRVFTDKTSATVICRKNASISVRAQDRYYSSSWSEWASVPCSGGGGSGGGGSGGGGSRNLPVATPDPGMFPCLHHSQNLLRAVSNMLQKARQTLEFYPCTSEEIDHEDITKDKTSTVEACLPLELTKNESCLNSRETSFITNGSCLASRKTSFMMALCLSSIYEDLKMYQVEFKTMNAKLLMDPKRQIFLDQNMLAVIDELMQALNFNSETVPQKSSLEEPDFYKTKIKLCILLHAFRIRAVTIDRVMSYLNAS
Q: Which “EC50 in the cell-based IL-12 reporter assay (HEK-Blue IL-12, STAT4-inducible SEAP, OD630)” value does the source give for B1 here?
A: The value was about 0.05 nM.

Q: What about the “fold activation based on the EC50 values (after protease treatment against prior to it)” value of the same binder?
A: The value was about 18 fold.

— patent US20220356221A1 (ASKGENE PHARMA, published 2022)
